Data published in patent US9175313B2, “Three-dimensional structure of isoprene synthase and its use thereof for generating variants” (Danisco US Inc., priority 2009, dated 2015).
Residue numbers refer to the chain shown, from its start. Numbers in names are those of the source.

B1: D345W: P. alba IspS variant (protein, UniProt Q50L36 38-595, looked up, variant D345W)
Isoprene synthase, …: CSVSTENVSFTETETEARRSANYEPNSWDYDYLLSSDTDESIEVYKDKAKKLEAEVRREINNEKAEFLTLLELIDNVQRLGLGYRFESDIRGALDRFVSSGGFDAVTKTSLHGTALSFRLLRQHGFEVSQEAFSGFKDQNGNFLENLKEDIKAILSLYEASFLALEGENILDEAKVFAISHLKELSEEKIGKELAEQVNHALELPLHRRTQRLEAVWSIEAYRKKEDANQVLLELAILDYNMIQSVYQRDLRETSRWWRRVGLATKLHFARDRLIESFYWAVGVAFEPQYSDCRNSVAKMFSFVTIIWDIYDVYGTLDELELFTDAVERWDVNAINDLPDYMKLCFLALYNTINEIAYDNLKDKGENILPYLTKAWADLCNAFLQEAKWLYNKSTPTFDDYFGNAWKSSSGPLQLVFAYFAVVQNIKKEEIENLQKYHDTISRPSHIFRLCNDLASASAEIARGETANSVSCYMRTKGISEELATESVMNLIDETWKKMNKEKLGGSLFAKPFVETAINLARQSHCTYHNGDAHTSPDELTRKRVLSVITEPILPFER
B2: D345M: P. alba IspS variant (protein, UniProt Q50L36 38-595, looked up, variant D345M)
Isoprene synthase, …: B1 Isoprene synthase, … with W308M
B3: D345S: P. alba IspS variant (protein, UniProt Q50L36 38-595, looked up, variant D345S)
Isoprene synthase, …: B1 Isoprene synthase, … with W308S
B4: D345C: P. alba IspS variant (protein, UniProt Q50L36 38-595, looked up, variant D345C)
Isoprene synthase, …: B1 Isoprene synthase, … with W308C

test: DMAPP assay of site evaluation library (SEL) lysates with ELISA protein quantitation: specific activity ranked as performance index; assay type: biochemical; conditions: primary SEL screen; activity on DMAPP per unit weight relative to the parental molecule (parent = 1)
Description: 1. Prepared Patch Plates from Glycerol Stock Plates. Using a V&S 96 pin Replication Tool, cultures were patched onto a LB Agar 35 CMP/50 Kan large patch plates from overnight glycerol stock plates. Plates were incubated at 30° C. overnight for 20 to 24 hr. Cultures can be stored at 4° C. for up to a week.
2. Prepared Overnight Growth Plates. 500 mL of LB 35 CMP/50 Kan media were prepared. 300 μL/well of LB 35 CMP/50 Kan media were dispensed into deep 96 well plates (VWR). Using a V&S Replication Tool, the patch inoculum was transferred into deep 96 well plate by touching the tool pins to respective patch and using a circular motion to coat the pins with inoculum. The media was inoculated by dipping the tool then shaking the pin within the well. The overnight growth plates were sealed using a Breathe-Easier Sealing Membrane (Diversified Biotech). The plates were incubated in a Vertiga Shaking Incubator at 30° C. with shaking at 800 rpm overnight for 16 to 18 hr.
3. Prepared Day Growth Plate. Deep 96 well plates were prepared by dispensing 588 μL/well of LB 35 CMP/50 Kan media. Overnight growth plates were removed from the incubator. Overnight cultures were diluted 50-fold and 12 μL of overnight culture were transferred to day growth plates containing 588 μL/well of LB media containing antiobiotics. Overnight growth plates were sealed with new Breathe-Easier Sealing Membranes. Cultures were incubated at 30° C. and 800 rpm for 2.5 hr. Frozen 12 mM IPTG (Sigma) vials were removed from −20° C. and placed in a hood to thaw.
4. OD600 Plate Read of Overnight, Induction, and Harvest. 150 μL 1×PBS were dispensed into 96 well Costar Read Plates (#9017). 50 μL of culture samples were transferred to Read Plates. The OD600 reading was recorded using a Spectramax Plate Reader (Molecular Devices).
5. Induction. Electronic multi-channel pipettors were prepared to dispense 4×20 μL/well of IPTG (if 4× replicates). The multi-dispense option in the electronic pipettor was adjusted if more replicates was necessary. Thawed 12 mM IPTG was poured into 50 mL or 100 mL sterile reservoirs. 20 μL/well of IPTG into each 600 μL/well culture. Overnight growth plates were resealed. Cultures were incubated at 30° C. and 800 rpm for 4 hr. OD600 readings of plates were recorded according instructions above.
6. Harvest. 400 μL of induced culture were transferred to 800 μL Grenier storage plates. Plates were centrifuged at 3300 rpm for 20 min at 2° to 8° C. in a low speed benchtop centrifuge. Supernatants were discarded, pellets should stay in the conical bottom well. Residual supernatants were slapped out onto a paper towel on the benchtop. Plates were sealed with an aluminum foil membrane (Beckman-Coulter). Plates were covered with a plastic plate lid if available. Storage plates were labeled accordingly and stored frozen at −80° C.
Plates containing induced cell pellets were removed from the −80° C. freezer and allowed to thaw on the benchtop for 30 minutes prior to lysis. 200 μl of lysis buffer (50 mM Tris pH 8, 25 mM MgCl2, 74 μg/ml DNase I, 250 U/ml lysozyme, 0.1% Tween 20, 0.5 mM PMSF) was added to each pellet, and plates were incubated on an Eppendorf Thermomixer at 25° C. for 30 minutes at 1200 rpm. After lysis, plates were centrifuged at 3450 rpm for 15 minutes at 4° C. Supernatants were then removed and diluted 10-fold prior to DMAPP assay. 80 μl of the diluted supernatant was added to 20 μl of the DMAPP working stock (20 mM DMAPP in 0.1 M Phosphate Buffer pH 8.2, DMAPP triammonium salt, Cayman chemicals) in a Zinsser glass block. Blocks were then sealed with aluminum sealing membranes, and incubated in Thermomixers at 25° C. for 30 minutes at 450 rpm. Reactions were stopped by incubating blocks on Thermomixers at 70° C. for 12 minutes at 450 rpm. GC-MS was then used for headspace measurements to calculate the amount of isoprene produced by each lysates.
Headspace Assay. […]

| Molecule | performance index |
| --- | --- |
| B1 | 0.46 |
| B2 | 0.43 |
| B3 | 0.41 |
| B4 | 0.43 |
